Test [1] deals with T1, human FAP (human, UniProt Q12884 1-760).
T1 construct: also called hu FAP
Description: flow cytometry, NIH/3T3-huFAP clone 19 cells. The procedure: (§1) Briefly, suspension cells were harvested, counted, checked for viability and re-suspended at 1 million cells per ml in FACS buffer (PBS with 0.1% BSA). […] The staining was fixed for 20 min at 4° C. in the dark, using 75 μl of 1% PFA in FACS buffer per well.
(§2) Fluorescence was analyzed by FACS using a FACS Fortessa (Software FACS Diva). Binding curves and EC₅₀ values were obtained using GraphPadPrism 7.

The target of test [2] is T2, human ICOS (human, UniProt Q9Y6W8 21-199).
T2 construct: The cell that carries it is named under assay; also called huICOS; CD278
T2 sequence: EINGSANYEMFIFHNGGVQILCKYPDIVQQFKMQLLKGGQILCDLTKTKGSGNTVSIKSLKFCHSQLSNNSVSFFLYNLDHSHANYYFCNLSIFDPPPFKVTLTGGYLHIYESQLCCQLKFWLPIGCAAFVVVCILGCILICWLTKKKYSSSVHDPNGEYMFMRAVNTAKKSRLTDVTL
The test can be described thus: flow cytometry, CHO cells expressing human ICOS. The method, then:
as §1, §2

In test [3] the target is T3, murine FAP (murine, UniProt P97321 26-761, limits assumed).
T3 construct: also called mouse FAP
The test can be described thus: flow cytometry, cells carrying murine FAP not told.

Test [4] deals with T4, cynomolgus ICOS (cynomolgus, UniProt Q9Y6W8 21-195 (human entry)).
T4 chain: T2 sequence with T54K, H81R, A129T, L136F, S152T, D176G, V177T, L179P
The test can be described thus: flow cytometry, activated cynomolgus PBMCs, CD4+ subset. The method, then: as §1
(§3) Briefly, cynomolgus PBMCs were activated for 48 hours using Dynabeads™ Human T-Activator CD3/CD28 (Thermo Fischer #11131D) according to manufacturer instruction and stored in RPMI1640 medium containing 10% FCS and 1% Glutamax (Gibco 35050061) at 37° C., in a humidified incubator until subsequent binding experiment was performed, as described above.

Test [5] addresses T4, cynomolgus ICOS. Description: flow cytometry, activated cynomolgus PBMCs, CD8+ subset. The method, then:
as §1, §3

Test [6] concerns the target T4, cynomolgus ICOS. Description: flow cytometry, activated cynomolgus PBMCs, CD4+ subset. The method, then:
as §1, §3

Test [7] concerns the target T4, cynomolgus ICOS. Description: flow cytometry, activated cynomolgus PBMCs, CD8+ subset. The procedure: as §1, §3
On the technique in general: In flow cytometry, cells or beads pass a laser one at a time.

A further test addresses T5, murine ICOS (murine, UniProt Q9WVS0 21-200).
T5 sequence: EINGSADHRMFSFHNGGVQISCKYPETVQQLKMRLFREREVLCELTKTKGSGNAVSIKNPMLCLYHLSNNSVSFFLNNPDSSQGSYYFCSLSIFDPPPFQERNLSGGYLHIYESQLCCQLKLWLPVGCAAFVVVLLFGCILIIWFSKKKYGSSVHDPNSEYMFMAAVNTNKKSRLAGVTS
Description: flow cytometry, pre-activated murine splenocytes (figure legend: recombinant CHO cells).

In test [8] the target is T3, murine FAP. Description: flow cytometry, % positive cells; cells bearing murine FAP not given.
The target in test [9] is T2, human ICOS. Description: flow cytometry on CHO cells stably expressing human ICOS, AF647-labelled anti-human Fc secondary antibody, MFI. The method, then: as §1, §2
Test [10] deals with T1, human FAP. The test can be described thus: flow cytometry, NIH/3T3-huFAP clone 19 cells. The source holds these as a separate data set.
Test [11] concerns the target T2, human ICOS. The test can be described thus: flow cytometry on human PBMCs pre-activated 48 h with PHA-L and IL-2, CD4+ subset, MFI. The procedure: as §1
Briefly, Peripheral blood mononuclear cells (PBMCs) were prepared by Histopaque (Sigma-Aldrich, Cat No. 10771-500ML Histopaque-1077) density centrifugation of enriched lymphocyte preparations of heparinized blood obtained from a Buffy Coat (“Blutspende Zürich”). The blood was diluted 1:2 with sterile DPBS and layered over Histopaque gradient (Sigma, #H8889). After centrifugation (450×g, 30 minutes, room temperature), the plasma above the PBMC-containing interphase was discarded and PBMCs transferred in a new falcon tube subsequently filled with 50 ml of PBS. The mixture was centrifuged (400×g, 10 minutes, room temperature), the supernatant discarded and the PBMC pellet washed twice with sterile PBS (centrifugation steps 350×g, 10 minutes). The resulting PBMC population was counted automatically (Cedex HiRes) and stored in RPMI1640 medium containing 10% FCS and 1% Glutamax (Gibco 35050061). […] After incubation the PBMCs were used for a subsequent binding experiment, as described above.

Test [12] deals with T2, human ICOS. The description is as above. The source holds these as a separate data set.

Where a chain is given by its changes, count along the chain named. Names may count otherwise. Like-named read-outs stand apart in the source and are kept apart here.

B1: Molecule 9, bispecific 2+1 anti-ICOS (1167)/anti-FAP (4B9) huIgG1 P329GLALA kih (bispecific antibody)
heavy 1: EVRLLESGGGLVQPGGSLRLSCAASGFTFNTYAVHWVRQAPGKGLEWVSGIGGSGVRTYYADSVKGRLTISRDNSKNTLYLQMNSLRAEDTAIYFCAKDIYVADFTGYAFDIWGQGTMVTVSSASTKGPSVFPLAPSSKSTSGGTAALGCLVKDYFPEPVTVSWNSGALTSGVHTFPAVLQSSGLYSLSSVVTVPSSSLGTQTYICNVNHKPSNTKVDKKVEPKSCDKTHTCPPCPAPEAAGGPSVFLFPPKPKDTLMISRTPEVTCVVVDVSHEDPEVKFNWYVDGVEVHNAKTKPREEQYNSTYRVVSVLTVLHQDWLNGKEYKCKVSNKALGAPIEKTISKAKGQPREPQVCTLPPSRDELTKNQVSLSCAVKGFYPSDIAVEWESNGQPENNYKTTPPVLDSDGSFFLVSKLTVDKSRWQQGNVFSCSVMHEALHNHYTQKSLSLSPGGGGGSGGGGSGGGGSGGGGSEIVLTQSPGTLSLSPGERATLSCRASQSVTSSYLAWYQQKPGQAPRLLINVGSRRATGIPDRFSGSGSGTDFTLTISRLEPEDFAVYYCQQGIMLPPTFGQGTKVEIK
heavy 2: not shown
light: DIQMTQSPSSVSASVGDRVTITCRASQGINNFLAWYQQKPGKAPKLLIYDASSLQSGVPSRFAGSGSGTDFTLTISSLQPEDFATYYCQQYNFYPLTFGGGTMVEIKRTVAAPSVFIFPPSDRKLKSGTASVVCLLNNFYPREAKVQWKVDNALQSGNSQESVTEQDSKDSTYSLSSTLTLSKADYEKHKVYACEVTHQGLSSPVTKSFNRGEC
notes: also called FAP-ICOS (2+1)
Consider B1, for which the EC50 (in general, the concentration at which the effect is half-maximal) came to 5.73 nM in the test with human FAP [1]; 2.72 nM in the test with human ICOS [2]; 0.505 nM with murine FAP [3]; 5.5 nM in the test with cynomolgus ICOS [4]; 10.5 nM with cynomolgus ICOS [5]; 5.5 nM with cynomolgus ICOS [6]. Further, the EC50 is 10.5 nM with cynomolgus ICOS [7] and 7.21 nM with murine ICOS. The EC50 (read off the curve) (as a rule, the concentration that produces a half-maximal response) was approximately 0.5 nM with murine FAP [8] and approximately 3 nM with human ICOS [9].

B2: Molecule 13, bispecific 2+1 anti-ICOS (1167)/anti-FAP (4B9) Crossfab-IgG P329G LALA inverted (bispecific antibody)
heavy 1: EVRLLESGGGLVQPGGSLRLSCAASGFTFNTYAVHWVRQAPGKGLEWVSGIGGSGVRTYYADSVKGRLTISRDNSKNTLYLQMNSLRAEDTAIYFCAKDIYVADFTGYAFDIWGQGTMVTVSSASTKGPSVFPLAPSSKSTSGGTAALGCLVEDYFPEPVTVSWNSGALTSGVHTFPAVLQSSGLYSLSSVVTVPSSSLGTQTYICNVNHKPSNTKVDEKVEPKSCDKTHTCPPCPAPEAAGGPSVFLFPPKPKDTLMISRTPEVTCVVVDVSHEDPEVKFNWYVDGVEVHNAKTKPREEQYNSTYRVVSVLTVLHQDWLNGKEYKCKVSNKALGAPIEKTISKAKGQPREPQVCTLPPSRDELTKNQVSLSCAVKGFYPSDIAVEWESNGQPENNYKTTPPVLDSDGSFFLVSKLTVDKSRWQQGNVFSCSVMHEALHNHYTQKSLSLSP
light 1: B1 light
heavy 2: not shown
light 2: EVQLLESGGGLVQPGGSLRLSCAASGFTFSSYAMSWVRQAPGKGLEWVSAIIGSGASTYYADSVKGRFTISRDNSKNTLYLQMNSLRAEDTAVYYCAKGWFGGFNYWGQGTLVTVSSASVAAPSVFIFPPSDEQLKSGTASVVCLLNNFYPREAKVQWKVDNALQSGNSQESVTEQDSKDSTYSLSSTLTLSKADYEKHKVYACEVTHQGLSSPVTKSFNRGEC
In the test with human FAP [10], B2 came in with an EC50 of 4.45 nM. In addition, the binding result with human ICOS [11] is listed as “binds”.

B3: Molecule 41, CEA(A5H1EL1D)-ICOS(1167) 1+1 human IgG1 P329GLALA (bispecific antibody)
heavy 1: EIVLTQSPATLSLSPGERATLSCRASSSVTYIHWYQQKPGQAPRSWIYATSNLASGIPARFSGSGSGTDFTLTISSLEPEDFAVYYCQHWSSKPPTFGQGTKLEIKSSASTKGPSVFPLAPSSKSTSGGTAALGCLVKDYFPEPVTVSWNSGALTSGVHTFPAVLQSSGLYSLSSVVTVPSSSLGTQTYICNVNHKPSNTKVDKKVEPKSCDKTHTCPPCPAPEAAGGPSVFLFPPKPKDTLMISRTPEVTCVVVDVSHEDPEVKFNWYVDGVEVHNAKTKPREEQYNSTYRVVSVLTVLHQDWLNGKEYKCKVSNKALGAPIEKTISKAKGQPREPQVCTLPPSRDELTKNQVSLSCAVKGFYPSDIAVEWESNGQPENNYKTTPPVLDSDGSFFLVSKLTVDKSRWQQGNVFSCSVMHEALHNHYTQKSLSLSP
light 1: EVQLLESGGGLVQPGGSLRLSCAASGFTFTDYYMNWVRQAPGKGLEWLGFIGNKANAYTTEYSASVKGRFTISRDKSKNTLYLQMNSLRAEDTATYYCTRDRGLRFYFDYWGQGTTVTVSSASVAAPSVFIFPPSDEQLKSGTASVVCLLNNFYPREAKVQWKVDNALQSGNSQESVTEQDSKDSTYSLSSTLTLSKADYEKHKVYACEVTHQGLSSPVTKSFNRGEC
heavy 2: not shown
light 2: B1 light
B3: the binding result in the test with human ICOS [12] is on record as “binds”.
